Experiments:
[1] = substrate: NC(=O)c1ccc[n+]([C@@H]2O[C@H](COP(=O)(O)O)[C@@H](O)[C@H]2O)c1; experiment: purified protein; type: biochemical, Mus musculus; conditions: 1 mM ATP, 20 mM MgCl2, 20 mM HEPES-KOH pH 7.4, 37°C
[2] = substrate: Nc1ncnc2c1ncn2[C@@H]1O[C@H](COP(=O)(O)OP(=O)(O)OP(=O)(O)O)[C@@H](O)[C@H]1O; experiment: purified protein; type: biochemical, Mus musculus; conditions: 1 mM NMN, 20 mM MgCl2, 20 mM HEPES-KOH pH 7.4, 37°C

Protein	Km [1]	Km [2]
Nmnat1 (mouse Nmnat1) (Mus musculus) (protein) MDSSKKTEVVLLACGSFNPITNMHLRLFELAKDYMHATGKYSVIKGIISPVGDAYKKKGLIPAHHRIIMAELATKNSHWVEVDTWESLQKEWVETVKVLRYHQEKLATGSCSYPQSSPALEKPGRKRKWADQKQDSSPQKPQEPKPTGVPKVKLLCGADLLESFSVPNLWKMEDITQIVANFGLICITRAGSDAQKFIYESDVLWRHQSNIHLVNEWITNDISSTKIRRALRRGQSIRYLVPDLVQEYIEKHELYNTESEGRNAGVTLAPLQRNAAEAKHNHSTL	27.6 µM	50.4 µM
Nmnat1 (mouse Nmnat1) (Mus musculus; H24A) (protein) MDSSKKTEVVLLACGSFNPITNMALRLFELAKDYMHATGKYSVIKGIISPVGDAYKKKGLIPAHHRIIMAELATKNSHWVEVDTWESLQKEWVETVKVLRYHQEKLATGSCSYPQSSPALEKPGRKRKWADQKQDSSPQKPQEPKPTGVPKVKLLCGADLLESFSVPNLWKMEDITQIVANFGLICITRAGSDAQKFIYESDVLWRHQSNIHLVNEWITNDISSTKIRRALRRGQSIRYLVPDLVQEYIEKHELYNTESEGRNAGVTLAPLQRNAAEAKHNHSTL		47.3 µM
Nmnat1 (mouse Nmnat1) (Mus musculus; W170A) (protein) MDSSKKTEVVLLACGSFNPITNMHLRLFELAKDYMHATGKYSVIKGIISPVGDAYKKKGLIPAHHRIIMAELATKNSHWVEVDTWESLQKEWVETVKVLRYHQEKLATGSCSYPQSSPALEKPGRKRKWADQKQDSSPQKPQEPKPTGVPKVKLLCGADLLESFSVPNLAKMEDITQIVANFGLICITRAGSDAQKFIYESDVLWRHQSNIHLVNEWITNDISSTKIRRALRRGQSIRYLVPDLVQEYIEKHELYNTESEGRNAGVTLAPLQRNAAEAKHNHSTL	1400 µM	
